Measurements reported in article PMC9841404, “Werner syndrome protein works as a dimer for unwinding and replication fork regression” (Nucleic Acids Research, 2022).

Assays:
[1] = target: the molecule itself; assay: single-molecule GFP photobleaching step counting (TIRF microscopy); immobilised forked DNA incubated with 24 nM GFP-tagged WRN and 1 nM RPA, unbound washed out; steps counted in the absence of ATP; only molecules with unwinding activity (Cy3-Cy5 FRET after 1 mM ATP-Mg2+) counted; room temperature
[2] = target: the molecule itself; assay: single-molecule GFP photobleaching step counting (TIRF microscopy); real-time binding of GFP-tagged WRN to model replication fork immobilised via biotin-streptavidin; all bound molecules counted; no ATP; 10 mM Tris-HCl pH 8.0, 50 mM NaCl; room temperature; oligomer counted on DNA

B1: GFP-tagged Werner syndrome protein (f:GFP-WRN) (enzyme)
chain: not shown
notes: Werner syndrome protein (WRN), human; cDNA encoding full-length WRN generated by RT-PCR from total RNA of HEK293T cells, subcloned into pFASTBAC1; Number of copies depends on the condition: dimer or tetramer on DNA (see measurements); also called GFP-tagged WRN; not shown: FLAG, N-terminal, kept; GFP, N-terminal, kept
For B1, the “stoichiometry N” value [1] was 2 and the “stoichiometry N” value [2] was 4.
